# Results taken from PMC6403468.
# Molecular target: VLDLR fused to monomeric GFP (VLDLR_mGFP) (mouse)
# Assay: FRET or BRET; time-resolved fluorescence anisotropy imaging (TR-FAIM, homo-FRET) of mGFP-tagged proteins in living HEK293 cells, rFRET from global fit, Imaging Medium; basal state, and before and after 1 uM AP20187, FL-Reelin or R3-6 (up to 90 nM)
substance,measurement,value
VLDLR fused to monomeric GFP (VLDLR_mGFP) (receptor),rFRET,0.0858
